Experimental data published in article doi:10.1101/2021.01.08.425872.
Where two headings read alike, the source gives them in different places. One block for each molecule: values may come before it.

What was measured:
[1] = molecular target: taxol-stabilized microtubules (porcine brain tubulin) (porcine) (UniProt P02550); test: co-sedimentation
[2] = molecular target: taxol-stabilized microtubules (porcine brain tubulin) (porcine) (UniProt P02550); test: co-sedimentation; remark: listed apart in the source

stoichiometry N (mol per mol of tubulin) [1]: 0.85
Molecule: ICR2-His6 (from UniProt Q9ZQC5 56-583) (natural protein)

stoichiometry N (mol per mol of tubulin) [1]: 0.4
stoichiometry N (mol per mol of tubulin) [2]: 0.35
B1: ICR1-His6 (natural protein)
chain: MPRPRVSELSQRQAPRLRSSSSTSDSNHSNRLITTDQSFKPGVDRKSPRSGGPNSDPLGQKKLGGRISDLESQLGQAQEELRLLKEQLANAEAVKKQAQDELHKKSKKPNPLARVEESATEAERIDRDEIPGDVQKETDVFEVPVEKIAVEEEELRSGNDEAEKLVAKEDEIKMLKARLYDMEKEHESLGKENESLKNQLSDSASEISNVKANEDEMVSKVSRIGEELEESRAKTAHLKEKLESMEEAKDALEAEMKKLRVQTEQWRKAADAAAAVLSGEFEMNGRDRSGSTEKYYAGGFFDPSAGFMDPPGMADDYDDGLGSGKRKSSGMKMFGELWRKKGQK
